Where “and” joins values, the source holds several entries; their conditions need not be identical. Identical values can stand only once.
Tests used:
[1] = chemical chromosome doubling, Frei et al. 2018; cited from earlier work
[2] = test system: Background 1 (PHR03 x PH184C); experiment: Haploid induction cross, haploid embryos scored by absence of paternal YFP, Background 1; format: in vivo, Zea mays
Method: (§1) The ears of the transgenic female parent plants were shoot-bagged before silk emergence to avoid any foreign pollen contamination. The silks of the donor ears were pollinated with viable pollen grains collected from the anthers of a haploid inducer parent plant, constituting a “haploid induction cross”.
(§2) Immature ears were harvested approximately 18 days after pollination, surface sterilized in 30% Clorox bleach plus 0.5% Micro detergent for 20 minutes and washed twice with sterile water. Immature embryos obtained from each donor ear comprising a biological replicate for a unique transformation event were plated on a petri dish containing 605B resting medium and incubated at 28° C. under dark conditions for 12-24 hours.
Using the methods described in Examples 2 and 3, T0 transgenic plants hemizygous for RV048759 (SEQ ID NO: 16) or RV027603 (SEQ ID NO: 7) were obtained from a population of transformed immature diploid embryos from two different genetic backgrounds. The first genetic background (hereinafter “Background 1”) was “PHR03 x PH184C” and the second genetic background (hereinafter “Background 2”) was X08D492.
The T0 transgenic plants hemizygous for RV048759 were used as female parent plants and the donor ears fertilized with pollen provided by a pollen donor. The silks of the donor ears were pollinated with viable pollen grains collected from the anthers of a haploid inducer parent plant, constituting a “haploid induction cross”.
(§3) A total of 13 unique events for RV048759 and a total of 7 unique events for RV027603 were analyzed in Background 1. A total of 13 unique events for RV048759 and a total of 11 unique events for RV027603 were analyzed in Background 2.

Background 2 (X08D492) = experiment: Haploid induction cross, haploid embryos scored by absence of paternal YFP, Background 2; format: in vivo, Zea mays
Method: as §1, §2
Using the methods described in Examples 2 and 3, T0 transgenic plants hemizygous for RV048759 (SEQ ID NO: 16) or RV027603 (SEQ ID NO: 7) were obtained from a population of transformed immature diploid embryos from two different genetic backgrounds. The first genetic background (hereinafter “Background 1”) was “PHR03 x PH184C” and the second genetic background (hereinafter “Background 2”) was X08D492. […]
as §3

unfertilized egg cell = experiment: In vivo genetic chromosome doubling: fertility (mature seed set) of self-pollinated regenerated T1 (D0) plants, Example 3; design: species or system Zea mays
From the text: Using the methods described in Example 2, T0 transgenic plants hemizygous for RV027603 (SEQ ID NO: 7) were obtained from a population of transformed immature diploid embryos. […] Using methods known in the art, single copy T0 plants were identified and grown to maturity. Upon the transition to flowering, the T0 plants were used as female parent plants to provide a donor ear.
as §1, §2
A total of 8 unique events for RV027603 were analyzed. Per event, two groups of haploid embryos were obtained given the hemizygous T-DNA from RV027603 inherited from the maternal plant. A first group of haploid embryos lacking inheritance of T-DNA from RV027603 was used to regenerate “null T1 plants”. A second group of haploid embryos that inherited a T-DNA from RV027603 was used to regenerate “hemizygous T1 plants”. No artificial chromosome doubling treatment, for example a chemical chromosome doubling treatment or agent, was provided to any of the haploid embryos during the experiment.
To assess the efficacy of in vivo genetic chromosome doubling in response to ZM-ODP2-(266-669) activity, the proportion of regenerated T1 plants capable of producing intact, mature seed was evaluated. The ear of each D0 (T1) plant for both the “null” or “hemizygous” T1 groups were shoot-bagged before silk emergence to avoid any foreign pollen contamination. The silks of the ears for each D0 (T1) plant were self-pollinated with pollen grains collected from the anthers of each D0 (T1) plant. After self-fertilization, the plants were grown to physiological maturity, the ears harvested, and D1 (T2) seed was counted per donor ear from each null and hemizygous plant per group per event. Seed counts for fertile plants were sorted into three categories: a low-range consisting of 1-24 kernels/ear, a medium-range consisting of 25-39 kernels/ear, and a high-range consisting of 40 or more kernels/ear.

Row | Molecule | fertility rates for self-pollinated D0 plants [1] | average haploid induction rate [2] | average haploid induction rate (Background 2 (X08D492)) | Haploid Induction Rate (%) ([2]; per event) | self-pollinated hemizygous D0/T1 plants that produced 40 or more D1/T2 kernels (unfertilized egg cell; % of the hemizygous T1 group) | average level of fertile hemizygous T1 plants (unfertilized egg cell; hemizygous T1 plants, across 8 events of RV027603, self-pollinated, no artificial chromosome doubling treatment) | level of fertile null T1 plants (produced mature, intact seed) (unfertilized egg cell; null T1 plants lacking T-DNA of RV027603, same 8 events, self-pollinated) | self-pollinated hemizygous D0/T1 plants that produced 40 or more D1/T2 kernels (count) (unfertilized egg cell; of 38 self-pollinated D0/T1 plants)
1 | COc1cc2c(c(OC)c1OC)-c1ccc(OC)c(=O)cc1[C@@H](NC(C)=O)CC2 [colchicine, (S)-N-(5,6,7,9-tetrahydro-1,2,3,10-tetramethoxy-9-oxobenzo (a)heptalen-7-yl) acetamide] | 15-20% |  |  |  |  |  |  | 
2 | ZM-ODP2-(266-668):At-CBF1a: fusion protein (SEQ ID NO: 15) of truncated ZM-ODP2 and C-repeat/DRE binding factor domain At-CBF1a; expressed from plasmid RV048759 under PvEC1 promoter (protein) MDTFGQRTSIYRGVTRHRWTGRYEAHLWDNSCRREGQTRKGRQVYLGGYDKEEKAARAYDLAALKYWGATTTTNFPVSNYEKELEDMKHMTRQEFVASLRRKSSGFSRGASIYRGVTRHHQHGRWQARIGRVAGNKDLYLGTFSTQEEAAEAYDIAAIKFRGLNAVTNFDMSRYDVKSILDSSALPIGSAAKRLKEAEAAASAQHHHAGVVSYDVGRIASQLGDGGALAAAYGAHYHGAAWPTIAFQPGAASTGLYHPYAQQPMRGGGWCKQEQDHAVIAAAHSLQDLHHLNLGAAGAHDFFSAGQQAAAAAMHGLGSIDSASLEHSTGSNSVVYNGGVGDSNGASAVGGSGGGYMMPMSAAGATTTSAMVSHEQVHARAYDEAKQAAQMGYESYLVNAENNGGGGGGGSGGGGSGGGGSTCAKDIQKAAAEAALAFQDETCDTTTTNHGLDMEETMVEAIYTPEQSEGAFYMDEETMFGMPTLLDNMAEGMLLPPPSVQWNHNYDGEGDGDVSLWSY |  | 31.3% | 33.9% |  |  |  |  | 
3 | ZM-ODP2-(266-669): truncated maize Ovule Development Protein 2 polypeptide (SEQ ID NO: 2) encoded by ZM-ODP2 (TR5); expressed from plasmid RV027603 under egg cell promoter (protein, Zea mays, expressed from plasmid RV027603 under egg cell promoter) MDTFGQRTSIYRGVTRHRWTGRYEAHLWDNSCRREGQTRKGRQVYLGGYDKEEKAARAYDLAALKYWGATTTTNFPVSNYEKELEDMKHMTRQEFVASLRRKSSGFSRGASIYRGVTRHHQHGRWQARIGRVAGNKDLYLGTFSTQEEAAEAYDIAAIKFRGLNAVTNFDMSRYDVKSILDSSALPIGSAAKRLKEAEAAASAQHHHAGVVSYDVGRIASQLGDGGALAAAYGAHYHGAAWPTIAFQPGAASTGLYHPYAQQPMRGGGWCKQEQDHAVIAAAHSLQDLHHLNLGAAGAHDFFSAGQQAAAAAMHGLGSIDSASLEHSTGSNSVVYNGGVGDSNGASAVGGSGGGYMMPMSAAGATTTSAMVSHEQVHARAYDEAKQAAQMGYESYLVNAENNGGG |  | 3.5% | 15.1% | 2.5% and 2.4% and 1.9% and 4.8% and 0.6% and 5.0% and 7.0% | 83% | 14.9% | 3.2% and 3.17% | 31
